Experiments:
[1] = target: T1, human DLL-4 expressed on the surface of CHO-K1 cells (CHO-DLL-4 cells) (human, UniProt Q9NR61 27-685); assay: flow cytometry blocking of soluble Notch-1 binding
[2] = target: T2, recombinant human DLL4 (rhDLL4) (human, UniProt Q9NR61 27-524); assay: Biacore SPR
[3] = target: T1, human DLL-4 expressed on the surface of …; assay: flow cytometry
[4] = target: T2, recombinant human DLL4 (rhDLL4); assay: Biacore SPR; remark: listed apart in the source

IC50 [1] [nM]	Kd [2] [nM]	EC50 [3] [nM]	Ka [4] [M⁻¹]	Binder
0.364	0.884	0.107	1.13e+09	anti-DLL-4 antibody C3 (antibody, V domains shown) VH: QVQLVQSGSELKKPGASVKVSCKASGYTFTSYYMHWVRQVPGQGLEWMGIINPSGGSTSYAQKFQGRVTMTRDTSTSTVYMELSSLRSEDTAVYYCATDYYDSSGYVDFDYWGQGTLVTVSS VL: not shown
0.286	1.15	0.305	8.72e+08	anti-DLL-4 antibody G6 (antibody, V domains shown) VH: EVQLVESGGSLVQPGGSLRLSCAASGFTFSNGWMTWLRQAPGKGLEWVATIKPDGSDTAYVESVKGRFTISRDNAKNLLYLQMDSLRGDDTAVYFCARDLAYNAFDIWGQGTMVTVSS VL: not shown
0.676	1.18	0.216	8.49e+08	anti-DLL-4 antibody C10 (antibody, V domains shown) VH: QVQLVESGAEVKKPGASVKVSCKASGYTFTSYYMHWVRQAPQGLEWMGIINPSGGSTSYAQKFQGRVTMTRDTSTNTVYMELSSLRSEDTAVYYCARDVWGGYFDYWGQGTLVTVSS VL: QSVLTQPASVSGSPGQSITISCTGTSSDVGGYNYVSWYQQHPGKAPKLMIYDVTNRPSGVSNRFSGSKSGNTASLTISGLQAEDEADYYCSSYTSSSTVIFGGGTKLTVL

— patent publication US20130323248A1 (published 2013)
